Results from the supplement of paper PMC10126150.
± gives the standard deviation of the averaged measurements.

test system: ATP; assay: switch fluorescence ratio, 500 uM ATP over buffer (Cy3 cluster intensity, sum of 5 cycles each) (fold (ratio)); higher = stronger signal-on switching upon ATP binding; sequences stand for … in TCGTCGGCAGCGTCAGATGTGTATAAGAGACAGTTTTTTTTTTTTTTTTTTTTTTTTT…TC; details: aptamer strand: ATP DNA aptamer (quencher-CACCTGGGGGAGTATTGCGGAGGAAGG + anchor), 100 nM annealed; ATP concentration: 500 uM
How it was run: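 After annealing to 100 nM quencher-labelled ATP aptamer, Cy3-labelled switching-strand clusters on a modified Illumina MiSeq flow-cell were imaged in selection buffer. A second image followed after 15 min with 500 uM ATP at 22 °C, and five such buffer/ATP cycles were done, each separated by NaOH stripping and re-annealing. The fluorescence ratio, averaged per switch-domain sequence, is summed target-cycle over summed buffer-cycle Cy3 intensity per cluster, with clusters outside 100-1000 RFU excluded.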
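Also: ATP exposure 15 min at 22 °C before imaging.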

Row | Sequence | switch fluorescence ratio
1 | TATTATAATA | 0.98 ± 0.035
2 | TATTATAGGA | 0.982 ± 0.017
3 | TATTATATTA | 1.02 ± 0.019
4 | TATTATCTTT | 1.01 ± 0.024
5 | TATTATGAGA | 0.983 ± 0.026
6 | TATTATGTAT | 0.982 ± 0.031
7 | TATTATGTGG | 0.961 ± 0.01
8 | TATTATTCTG | 0.986 ± 0.023
9 | TATTATTTTT | 0.998 ± 0.026
10 | TATTCACAAG | 1.024 ± 0.0027
11 | TATTCATCCA | 1.01 ± 0.02
12 | TATTCATTAA | 0.969 ± 0.011
13 | TATTCATTGT | 1.005 ± 0.0074
14 | TATTCCGGCC | 1.05 ± 0.058
15 | TATTCCTCTG | 2.03 ± 0.26
16 | TATTCGAGGC | 1.06 ± 0.052
17 | TATTCGCATC | 2.12 ± 0.41
18 | TATTCTCATG | 1 ± 0.047
19 | TATTCTTGGG | 1 ± 0.028
20 | TATTGACGCC | 1.09 ± 0.033
21 | TATTGACGGT | 1.02 ± 0.022
22 | TATTGACTAG | 1.03 ± 0.059
23 | TATTGAGAGA | 1.02 ± 0.053
24 | TATTGAGCTG | 0.9775 ± 0.0087
25 | TATTGAGTAA | 1.02 ± 0.02

Row | Sequence | switch fluorescence ratio
26 | TATTGATTTG | 1.02 ± 0.019
27 | TATTGCATTA | 1.03 ± 0.013
28 | TATTGCGCTC | 1.09 ± 0.065
29 | TATTGCGGTC | 1.005 ± 0.0018
30 | TATTGCGTGG | 0.9836 ± 0.0073
31 | TATTGCTAGG | 0.9582 ± 0.0063
32 | TATTGCTTCA | 1.03 ± 0.016
33 | TATTGGCGTC | 0.985 ± 0.029
34 | TATTGGGGGC | 1 ± 0.018
35 | TATTGGGTGG | 0.9919 ± 0.0053
36 | TATTGGTCTA | 1.04 ± 0.087
37 | TATTGGTGGT | 0.995 ± 0.027
38 | TATTGGTGTT | 0.99 ± 0.015
39 | TATTGTAATT | 1.01 ± 0.014
40 | TATTGTATTC | 1 ± 0.013
41 | TATTGTGGGT | 0.98 ± 0.035
42 | TATTGTTTCG | 1.02 ± 0.029
43 | TATTTAAAAA | 1.01 ± 0.035
44 | TATTTAAGTG | 1.039 ± 0.0092
45 | TATTTACATT | 1.03 ± 0.048
46 | TATTTAGATG | 1.01 ± 0.018
47 | TATTTAGCCC | 1.047 ± 0.0069
48 | TATTTAGCGT | 1.01 ± 0.067
49 | TATTTCATTG | 1.02 ± 0.03
50 | TATTTCCCGT | 1.06 ± 0.065

Row | Sequence | switch fluorescence ratio
51 | TATTTCGATA | 1.029 ± 0.0047
52 | TATTTCGGGG | 1.02 ± 0.023
53 | TATTTCTTGG | 0.968 ± 0.014
54 | TATTTGAAAG | 1 ± 0.04
55 | TATTTGAAGG | 0.986 ± 0.053
56 | TATTTGGACT | 1.04 ± 0.046
57 | TATTTGGGAC | 1.02 ± 0.025
58 | TATTTGGGTT | 1.07 ± 0.082
59 | TATTTGTCAT | 1.02 ± 0.013
60 | TATTTGTGCG | 0.988 ± 0.035
61 | TATTTGTTGC | 1.03 ± 0.041
62 | TATTTGTTTG | 0.984 ± 0.03
63 | TATTTTAAGT | 0.993 ± 0.038
64 | TATTTTACAG | 1.02 ± 0.02
65 | TATTTTAGTG | 0.996 ± 0.025
66 | TATTTTGAAA | 0.992 ± 0.027
67 | TATTTTGGTC | 1.025 ± 0.0078
68 | TATTTTTAAA | 1.02 ± 0.028
69 | TATTTTTCAT | 1.01 ± 0.052
70 | TATTTTTT | 1.02 ± 0.027
71 | TATTTTTTAG | 0.96 ± 0.013
72 | TCAAAAAGTG | 0.989 ± 0.034
73 | TCAAAAATAT | 0.987 ± 0.025
74 | TCAAAATTTC | 1.01 ± 0.0072
75 | TCAAAATTTT | 1.01 ± 0.012

Row | Sequence | switch fluorescence ratio
76 | TCAAACAGCG | 0.9861 ± 0.00055
77 | TCAAAGCGGA | 1.01 ± 0.046
78 | TCAAATACG | 1.057 ± 0.009
79 | TCAAATTATG | 1.01 ± 0.035
80 | TCAAATTGCC | 0.982 ± 0.016
81 | TCAAATTTTG | 0.999 ± 0.021
82 | TCAACCTTTT | 1.04 ± 0.052
83 | TCAACGAGTA | 1.029 ± 0.0061
84 | TCAACGGGGG | 1.08 ± 0.17
85 | TCAACGGTCT | 0.9955 ± 0.0048
86 | TCAAGAGGCG | 1.019 ± 0.0029
87 | TCAAGGCAA | 1.8 ± 0.037
88 | TCAAGGGGGA | 1 ± 0.035
89 | TCAAGGGGTT | 1.1 ± 0.15
90 | TCAAGGGTTC | 1.03 ± 0.064
91 | TCAAGTAGAG | 0.99 ± 0.011
92 | TCAAGTATCT | 1.02 ± 0.041
93 | TCAAGTATGT | 1.006 ± 0.01
94 | TCAAGTTACA | 1.078 ± 0.0041
95 | TCAAGTTATT | 0.973 ± 0.0099
96 | TCAAGTTTG | 1.011 ± 0.0069
97 | TCAATACTTC | 1.88 ± 0.19
98 | TCAATAGACC | 1.05 ± 0.011
99 | TCAATAGTAC | 1.084 ± 0.0024
100 | TCAATCGGGT | 0.995 ± 0.053
